Measured values taken from patent publication US20160222085A1 (CHILDREN S HOSPITAL OF PHILADELPHIA, published 2016).

B1: FV-810 (FV-DT), Factor V with amino acids 811-1491 deleted from the B-domain (other, human, UniProt P12259 29-838, looked up)
chain: AQLRQFYVAAQGISWSYRPEPTNSSLNLSVTSFKKIVYREYEPYFKKEKPQSTISGLLGPTLYAEVGDIIKVHFKNKADKPLSIHPQGIRYSKLSEGASYLDHTFPAEKMDDAVAPGREYTYEWSISEDSGPTHDDPPCLTHIYYSHENLIEDFNSGLIGPLLICKKGTLTEGGTQKTFDKQIVLLFAVFDESKSWSQSSSLMYTVNGYVNGTMPDITVCAHDHISWHLLGMSSGPELFSIHFNGQVLEQNHHKVSAITLVSATSTTANMTVGPEGKWIISSLTPKHLQAGMQAYIDIKNCPKKTRNLKKITREQRRHMKRWEYFIAAEEVIWDYAPVIPANMDKKYRSQHLDNFSNQIGKHYKKVMYTQYEDESFTKHTVNPNMKEDGILGPIIRAQVRDTLKIVFKNMASRPYSIYPHGVTFSPYEDEVNSSFTSGRNNTMIRAVQPGETYTYKWNILEFDEPTENDAQCLTRPYYSDVDIMRDIASGLIGLLLICKSRSLDRRGIQRAADIEQQAVFAVFDENKSWYLEDNINKFCENPDEVKRDDPKFYESNIMSTINGYVPESITTLGFCFDDTVQWHFCSVGTQNEILTIHFTGHSFIYGKRHEDTLTLFPMRGESVTVTMDNVGTWMLTSMNSSPRSKKLRLKFRDVKCIPDDDEDSYEIFEPPESTVMATRKMHDRLEPEDEESDADYDYQNRLAAALGIRSFRNSSLNQEEEEFNLTALALENGTEFVSSNTDIIVGSNYSSPSNISKFTVNNLAEPQKAPSHQQATTAGSPLRHLIGKNSVLNSSTAEHSSPYSEDPIEDTDYIEIIPKEEVQSSEDDYAEIDYVPYDDPYKTDVRTNINSSRDPDNIAAWYLRSNNGNRRNYYIAAEEISWDYSEFVQRETDIEDSDDIPEDTTYKKVVFRKYLDSTFTKRDPRGEYEEHLGILGPIIRAEVDDVIQVRFKNLASRPYSLHAHGLSYEKSSEGKTYEDDSPEWFKEDNAVQPNSSYTYVWHATERSGPESPGSACRAWAYYSAVNPEKDIHSGLIGPLLICQKGILHKDSNMPMDMREFVLLFMTFDEKKSWYYEKKSRSSWRLTSSEMKKSHEFHAINGMIYSLPGLKMYEQEWVRLHLLNIGGSQDIHVVHFHGQTLLENGNKQHQLGVWPLLPGSFKTLEMKASKPGWWLLNTEVGENQRAGMQTPFLIMDRDCRMPMGLSTGIISDSQIKASEFLGYWEPRLARLNNGGSYNAWSVEKLAAEFASKPWIQVDMQKEVIITGIQTQGAKHYLKSCYTTEFYVAYSSNQINWQIFKGNSTRNVMYFNGNSDASTIKENQFDPPIVARYIRISPTRAYNRPTLRLELQGCEVNGCSTPLGMENGKIENKQITASSFKKSWWGDYWEPFRARLNAQGRVNAWQAKANNNKQWLEIDLLKIKKITAIITQGCKSLSSEMYVKSYTIHYSEQGVEWKPYRLKSSMVDKIFEGNTNTKGHVKNFFNPPIISRFIRVIPKTWNQSIALRLELFGCDIY
notes: range 1-810;range 1492-2196; Single-chain cofactor-like variant; All residue numbers count on mature Factor V (add 28 for the precursor)
B2: FV-810^QQ (other, human, UniProt P12259 29-838, looked up)
chain: AQLRQFYVAAQGISWSYRPEPTNSSLNLSVTSFKKIVYREYEPYFKKEKPQSTISGLLGPTLYAEVGDIIKVHFKNKADKPLSIHPQGIRYSKLSEGASYLDHTFPAEKMDDAVAPGREYTYEWSISEDSGPTHDDPPCLTHIYYSHENLIEDFNSGLIGPLLICKKGTLTEGGTQKTFDKQIVLLFAVFDESKSWSQSSSLMYTVNGYVNGTMPDITVCAHDHISWHLLGMSSGPELFSIHFNGQVLEQNHHKVSAITLVSATSTTANMTVGPEGKWIISSLTPKHLQAGMQAYIDIKNCPKKTRNLKKITREQRRHMKRWEYFIAAEEVIWDYAPVIPANMDKKYRSQHLDNFSNQIGKHYKKVMYTQYEDESFTKHTVNPNMKEDGILGPIIRAQVRDTLKIVFKNMASRPYSIYPHGVTFSPYEDEVNSSFTSGRNNTMIRAVQPGETYTYKWNILEFDEPTENDAQCLTRPYYSDVDIMRDIASGLIGLLLICKSRSLDRRGIQRAADIEQQAVFAVFDENKSWYLEDNINKFCENPDEVKRDDPKFYESNIMSTINGYVPESITTLGFCFDDTVQWHFCSVGTQNEILTIHFTGHSFIYGKRHEDTLTLFPMRGESVTVTMDNVGTWMLTSMNSSPRSKKLRLKFRDVKCIPDDDEDSYEIFEPPESTVMATRKMHDRLEPEDEESDADYDYQNRLAAALGIQSFRNSSLNQEEEEFNLTALALENGTEFVSSNTDIIVGSNYSSPSNISKFTVNNLAEPQKAPSHQQATTAGSPLRHLIGKNSVLNSSTAEHSSPYSEDPIEDTDYIEIIPKEEVQSSEDDYAEIDYVPYDDPYKTDVRTNINSSRDPDNIAAWYLQSNNGNRRNYYIAAEEISWDYSEFVQRETDIEDSDDIPEDTTYKKVVFRKYLDSTFTKRDPRGEYEEHLGILGPIIRAEVDDVIQVRFKNLASRPYSLHAHGLSYEKSSEGKTYEDDSPEWFKEDNAVQPNSSYTYVWHATERSGPESPGSACRAWAYYSAVNPEKDIHSGLIGPLLICQKGILHKDSNMPMDMREFVLLFMTFDEKKSWYYEKKSRSSWRLTSSEMKKSHEFHAINGMIYSLPGLKMYEQEWVRLHLLNIGGSQDIHVVHFHGQTLLENGNKQHQLGVWPLLPGSFKTLEMKASKPGWWLLNTEVGENQRAGMQTPFLIMDRDCRMPMGLSTGIISDSQIKASEFLGYWEPRLARLNNGGSYNAWSVEKLAAEFASKPWIQVDMQKEVIITGIQTQGAKHYLKSCYTTEFYVAYSSNQINWQIFKGNSTRNVMYFNGNSDASTIKENQFDPPIVARYIRISPTRAYNRPTLRLELQGCEVNGCSTPLGMENGKIENKQITASSFKKSWWGDYWEPFRARLNAQGRVNAWQAKANNNKQWLEIDLLKIKKITAIITQGCKSLSSEMYVKSYTIHYSEQGVEWKPYRLKSSMVDKIFEGNTNTKGHVKNFFNPPIISRFIRVIPKTWNQSIALRLELFGCDIY
notes: range 1-810;range 1492-2196; Both thrombin sites (Arg709 and Arg1545) changed to Gln; The same molecule is used for the thrombin-pretreated sample, since both cleavage sites are removed; the assay field says where thrombin pretreatment was used

Columns and labels:
[1] = target: T1, Oregon Green 488 maleimide-modified BR (OG488-BR) (human, Oregon Green 488 maleimide on the added N-terminal Cys); experiment: fluorescence anisotropy; FV-810 titrated into 20 nM OG488-BR with 50 uM PCPS, 25 C
T1 construct: also called fluorescently labeled FVBR
T1 peptide: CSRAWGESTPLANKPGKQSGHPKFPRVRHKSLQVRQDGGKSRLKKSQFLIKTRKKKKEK
Description: (§1) Control experiments were performed by titrating FV-810 into buffer containing 10 mM EDTA (X) or by titrating rFVa (▴).
(§2) Steady-state fluorescence anisotropy was measured at 25° C. in a PTI Quanta-Master™ fluorescence spectrophotometer (Photon Technology International, Birmingham, N.J.) using excitation and emission wavelengths of 480 and 520 nm, respectively, with long-pass filters (KV500, CVI Melles Griot) in the emission beam.

[2] = target: T2, Fluorescently-labeled, active site-blocked FXa (UniProt P00742 41-179; P00742 235-488, fluorescently-labeled, active site-blocked (label and blocker not named)); experiment: fluorescence anisotropy; FVDT titrated into fluorescently labeled, active site-blocked FXa on PCPS liposomes, buffer only (no FVBR); concentration of labeled FXa not given
T2 construct: also called fluorescently labeled FXa
T2 sequence (P00742 41-179 limits assumed, chain 1 of 2): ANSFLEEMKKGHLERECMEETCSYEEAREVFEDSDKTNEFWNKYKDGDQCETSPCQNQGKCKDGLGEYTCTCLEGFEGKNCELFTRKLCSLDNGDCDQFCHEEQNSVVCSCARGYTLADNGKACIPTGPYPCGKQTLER
T2 sequence (P00742 235-488 limits assumed, chain 2 of 2): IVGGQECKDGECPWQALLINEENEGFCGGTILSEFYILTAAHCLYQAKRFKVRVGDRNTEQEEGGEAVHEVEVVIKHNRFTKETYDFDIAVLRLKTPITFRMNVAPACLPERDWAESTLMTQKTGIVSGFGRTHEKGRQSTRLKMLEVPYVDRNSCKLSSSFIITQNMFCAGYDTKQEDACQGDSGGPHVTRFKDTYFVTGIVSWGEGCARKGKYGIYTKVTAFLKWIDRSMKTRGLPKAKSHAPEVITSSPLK

[3] = target: T3, TFPI C-terminal tail peptide; experiment: fluorescence anisotropy; FVDT titrated into the TFPI peptide (label and probe concentration not stated)
T3 construct: The limits are therefore uncertain; also called TFPI peptide
T3 peptide: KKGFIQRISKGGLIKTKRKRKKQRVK

[4] = target: T1, Oregon Green 488 maleimide-modified BR …; experiment: fluorescence anisotropy; FV-810 titrated into 40 nM OG488-BR with 50 uM PCPS, 25 C
Description: as §1, §2

[5] = target: T1, Oregon Green 488 maleimide-modified BR …; experiment: fluorescence anisotropy; buffer-pretreated FV-810 titrated into 30 nM OG488-BR with 50 uM PCPS
Description: (§3) FV-810, FV-810^R709Q (▴), FV-810^R1545Q (♦), and FV-810^QQ (▪) were pretreated with buffer (FIG. 14A) or thrombin (FIG. 14B).
as §2

[6] = target: T1, Oregon Green 488 maleimide-modified BR …; experiment: fluorescence anisotropy; FVDT titrated into fluorescently labeled FVBR (probe concentration not given)
[7] = target: T1, Oregon Green 488 maleimide-modified BR …; experiment: fluorescence anisotropy; thrombin-pretreated, hirudin-quenched FV-810 QQ titrated into 30 nM OG488-BR with 50 uM PCPS
Description: as §3, §2

[8] = target: T1, Oregon Green 488 maleimide-modified BR …; experiment: fluorescence anisotropy; buffer-pretreated FV-810 QQ titrated into 30 nM OG488-BR with 50 uM PCPS
Description: as §3, §2

| EC50 (read off the curve) [1] | EC50 (read off the curve) [2] | EC50 (read off the curve) [3] | EC50 (read off the curve) [4] | EC50 (read off the curve) [5] | EC50 (read off the curve) [6] | EC50 (read off the curve) [7] | EC50 (read off the curve) [8] | Binder |
| --- | --- | --- | --- | --- | --- | --- | --- | --- |
| ~8 nM | 6 to 8 nM | ~10 nM | ~10 nM | 10 to 15 nM | 10 to 15 nM |  |  | B1 |
|  |  |  |  |  |  | 10 to 15 nM | ~9 nM | B2 |
